Tests used:
Assay in all cases: MST
Details in all cases: 50 nM RED-NHS labeled PdtaR, RNA up to 10 uM, autophosphorylation buffer (composition and pH not in material) with 0.025% Tween-20, 50 uM ATP …
[1] = tested on: PdtaR (unphosphorylated) (Mycobacterium tuberculosis Erdman (ATCC 35801))
[2] = tested on: PdtaR~P (phosphorylated by PdtaS) (Mycobacterium tuberculosis Erdman (ATCC 35801))
[3] = target: T1, PdtaR (unphosphorylated) (Mycobacterium tuberculosis Erdman (ATCC 35801)) (UniProt P9WGM3)
T1 sequence: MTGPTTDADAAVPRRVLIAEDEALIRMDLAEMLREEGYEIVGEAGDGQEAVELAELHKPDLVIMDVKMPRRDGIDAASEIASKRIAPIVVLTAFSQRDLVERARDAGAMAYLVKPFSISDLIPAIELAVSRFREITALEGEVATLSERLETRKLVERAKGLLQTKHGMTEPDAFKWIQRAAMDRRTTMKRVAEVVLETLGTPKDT

| Substance | Kd [1] | Kd [2] | Kd [3] |
| --- | --- | --- | --- |
| PPE1-5' RNA | 1280 nM | 410 nM | – |
| GGCAAAAAAUUCGUGCACCAACCCCCCUCCGAGCGCUGCUAAGCUCAAUGUGCAGUGCAAAGGUGCAGAUAAUGAUGGCGCACCGGAACGGCGAGCGUAAGGAAA [rv3864 RNA] | – | – | 2590 nM |
| rv3864 RNA | 2590 nM | 2120 nM | – |
